Molecular target: N-terminally His-tagged recombinant ribosomal protein S1 of E. coli (from plasmid p16rpsAHis) (E. coli) (UniProt P0AG67)
Assay: native gel or EMSA; constant molar amount of S1 mixed with increasing RIII (RIII:S1 0.1:1 to 5:1), 10 min at room temperature, proteins dialysed against 50 mM sodium phosphate pH 7.4, 100 mM NaCl; native 14% PAGE, Coomassie

N-terminally 6His-tagged RIII protein of the T4 phage (from plasmid p21drIIIHis) (natural protein)
stoichiometry N (RIII:S1 molar ratio): 1

From PMC9409239
